Tests used:
[1] = target: human neonatal Fc receptor (FcRn), heterodimer of alpha-FcRn and beta2 microglobulin (human) (UniProt P55899); experiment: FcRn affinity chromatography
[2] = target: human neonatal Fc receptor (FcRn), heterodimer of alpha-FcRn and beta2 microglobulin (human) (UniProt P55899); experiment: SPR

| FcRn column retention time [1] [min] | FcRn column elution pH [1] [pH] | Rel. KD (KD normalised to the KD of ustekinumab) [2] | Substance |
| --- | --- | --- | --- |
| 92.4 | – | – | mAb 3 (ustekinumab HC + briakinumab LC) (from UniProt P01857 2-107) (antibody) |
| 84.3 | – | 1 | mAb 1 (ustekinumab Fv + briakinumab constant domains) (antibody) |

The next lines start with the substance.

| Substance | FcRn column retention time [1] [min] | FcRn column elution pH [1] [pH] | Rel. KD (KD normalised to the KD of ustekinumab) [2] |
| --- | --- | --- | --- |
| IdeS-cleaved Fc region of ustekinumab (domain or fragment) | 85.2 | – | – |
| briakinumab (antibody) | 93.7 | 7.9 | – |
| IdeS-cleaved Fc region of briakinumab (domain or fragment) | 85.7 | – | – |
| mAb 5 (ustekinumab CDRs on briakinumab) (antibody) | 85.1 | – | 0.9 |
